Measured values from patent US20230400471A1, “SYSTEMS, COMPOSITIONS AND METHODS OF DETERMINING VIABILITY OF EMBRYOS USING THE SAME” (BioIncept, LLC, priority 2020, published 2023).
Values joined by “and” are separate entries in the source; they are usually repeats but may differ in a detail not shown here. Equal values may be shown once. Read-outs that look alike come from different tables or passages of the source. Ends that are not written are not given here.

Experiments:
[1] = tested on: rabbit anti-PIF polyclonal antibody; test: PIF colorimetric ELISA using rabbit polyclonal antibody, epitope mapping with PIF peptides of various length; format: binding; conditions: representative value of three repeats
Method: (§1) To study PIF peptide and its derivatives of different length for binding to rabbit anti-PIF monoclonal antibody and rabbit anti-PIF polyclonal antibody, PIF peptides of various lengths as listed in Table 2 was synthesized, reconstituted in PBS and two different concentrations were tested by respective colorimetric ELISA following standard protocol. The standards were run in duplicate and the samples were run in triplicate and repeated three times.

[2] = tested on: rabbit anti-PIF monoclonal antibody; test: PIF colorimetric ELISA using rabbit anti-PIF monoclonal antibody, epitope mapping with PIF peptides of various length; format: binding; conditions: representative value of three repeats
Method: as §1

[3] = molecular target: T1, rabbit monoclonal anti-PIF antibody Clone #30; test: ELISA; Clone #30 via goat anti-rabbit; biotin-PIF tracer without unlabeled PIF
T1 chain 1: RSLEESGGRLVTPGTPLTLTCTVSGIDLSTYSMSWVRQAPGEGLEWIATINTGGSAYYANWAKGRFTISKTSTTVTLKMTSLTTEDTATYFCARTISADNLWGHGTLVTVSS
T1 chain 2: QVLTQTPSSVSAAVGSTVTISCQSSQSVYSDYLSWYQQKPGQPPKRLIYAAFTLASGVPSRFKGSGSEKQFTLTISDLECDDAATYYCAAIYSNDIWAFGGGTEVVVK

PIF = test: Surface plasmon resonance (SPR), captured Clone #30 with PIF as analyte; format: binding, human; conditions: PIF 2-fold concentration series up to 10 μM, duplicate
Description: (§2) The PIF-binding specificity of the rabbit monoclonal antibody Clone #30 described in Example 1 was quantitatively characterized by surface plasmon resonance (SPR). SPR is an optical technique for detecting the interaction of two different molecules in which one is mobile and one is fixed on a thin gold film. In SPR analysis, affinity-purified ligand polypeptides are immobilized on a sensor chip inserted into the flow chamber of an instrument, such as Biacore 3000 instrument (Biacore, Uppsala, Sweden). Addition of a second polypeptide, the flow-through analyte, to the chamber, results in binding to the immobilized polypeptide ligand, producing a small change in refractive index at the gold surface, which can be quantified with precision. Binding affinities can be obtained from the ratio of rate constants, yielding a straightforward characterization of protein-protein interaction.
(§3) In the work described here, purified rabbit monoclonal antibody Clone #30 was used as the ligand polypeptide and PIF in solution was used as the analyte to evaluate their binding affinity. To immobilize rabbit monoclonal antibody Clone #30 onto a chip, a sheep polyclonal anti-rabbit antibody was used. The sheep anti-rabbit antibody was amine coupled to a CM5 sensor chip using standard NHS/EDC activation. […]

scrambled PIF (SCR) = test: Surface plasmon resonance (SPR), captured Clone #30 with scrambled PIF as analyte; format: binding; conditions: SCR 2-fold concentration series up to 10 μM, duplicate
Description: as §2, §3

[4] = molecular target: T1, rabbit monoclonal anti-PIF antibody …; test: competitive ELISA; Clone #30 via goat anti-rabbit; competitor biotin-PIF tracer
[5] = molecular target: T1, rabbit monoclonal anti-PIF antibody …; test: competitive microarray immunoassay; Clone #30 on goat anti-rabbit spots; competitor A647-sPIF tracer
[6] = molecular target: T1, rabbit monoclonal anti-PIF antibody …; test: competitive ELISA; Clone #30 via goat anti-rabbit; competitor biotin-PIF tracer
[7] = molecular target: T2, preimplantation factor (PIF), full-length 15-amino acid peptide (human); test: SPR: Clone #30 captured (about 2000 RU) on sheep anti-rabbit antibody amine-coupled to a CM5 chip; PIF as analyte in a 2-fold series up to 10 µM; global 1:1 fit
[8] = molecular target: T2, preimplantation factor (PIF), …; test: SPR, Clone #30 captured on sheep anti-rabbit CM5 chip, PIF as analyte, global 1:1 fit
[9] = molecular target: T2, preimplantation factor (PIF), …; test: SPR: Clone #30 captured (about 2000 RU) on sheep anti-rabbit antibody amine-coupled to a CM5 chip; PIF as analyte in a 2-fold series up to 10 µM; global 1:1 fit; remark: listed apart in the source

With “P8-13: PIF peptide, amino acid locations 8-13 (S A N K P S) (SANKPS) [Clone P8-13]” the “% recovery by Rabbit Polyclonal Antibody” value ([1]; spike concentration 100 ng/ml) was 0%, the “% recovery by Rabbit Polyclonal Antibody” value ([1]; spike concentration 200 ng/ml) was 0% and the “% Recovery by Rabbit Monoclonal Antibody” value ([2]; spike concentration 100 ng/ml) was 0%. For the same molecule, the “% Recovery by Rabbit Monoclonal Antibody” value ([2]; spike concentration 200 ng/ml) was 0%.

With “P1-7: PIF peptide, amino acid locations 1-7 (M V R I K P G) (MVRIKPG) [Clone P1-7]” the “% recovery by Rabbit Polyclonal Antibody” value ([1]; spike concentration 100 ng/ml) was 0%, the “% recovery by Rabbit Polyclonal Antibody” value ([1]; spike concentration 200 ng/ml) was 0% and the “% Recovery by Rabbit Monoclonal Antibody” value ([2]; spike concentration 100 ng/ml) was 0%. The “% Recovery by Rabbit Monoclonal Antibody” value ([2]; spike concentration 200 ng/ml) was 0%.

Molecule MVRIKPGSANKPSDD (not fully specified) [biotin labeled PIF] has a % Bound, tracer alone (0 pg/mL PIF) [3] of 96%, an AvgNetRLU, tracer alone (0 pg/mL PIF) [3] of 2.28e+07 RLU and a MeanValue (RLU), tracer alone (0 pg/mL PIF) [3] of 2.8e+07 RLU. The Values (RLU), tracer alone (0 pg/mL PIF) [3] was 2.86e+07 RLU and 2.74e+07 RLU.

B1: Clone #30: Rabbit monoclonal antibody against human PIF peptide; heavy chain SEQ ID NO: 2, light chain SEQ ID NO: 7 (antibody, listed as Homo sapiens)
heavy: METGLRWLLLVAVLKGVQCRSLEESGGRLVTPGTPLTLTCTVSGIDLSTYSMSWVRQAPGEGLEWIATINTGGSAYYANWAKGRFTISKTSTTVTLKMTSLTTEDTATYFCARTISADNLWGHGTLVTVSSGQPKAPSVFPLAPCCGDTPSSTVTLGCLVKGYLPEPVTVTWNSGTLTNGVRTFPSVRQSSGLYSLSSVVSVTSSSQPVTCNVAHPATNTKVDKTVAPSTCSKPTCPPPELLGGPSVFIFPPKPKDTLMISRTPEVTCVVVDVSQ
light: MDTRAPTQLLGLLLLWLPGATFAQVLTQTPSSVSAAVGSTVTISCQSSQSVYSDYLSWYQQKPGQPPKRLIYAAFTLASGVPSRFKGSGSEKQFTLTISDLECDDAATYYCAAIYSNDIWAFGGGTEVVVKGDPVAPTVLIFPPSADQVATGTVTIVCVANKYFPDVTVTWEVDGTTQTTGIENSKTPQNSADCTYNLSSTLTLTSTQYNSHKEYTCKVTQGTTSVVQSFNRGDC
For B1, the “binding of PIF to Clone #30 by SPR” value (PIF) was “significant and concentration dependent binding response”, the Kd (PIF; SPR, 1:1 interaction model) was about 15 nM and the “binding of scrambled PIF (SCR) to Clone #30 by SPR” value (scrambled PIF (SCR)) was “no binding was observed”.

In the case of MVRIKPGSANKPSDD (modifications not checked) [preimplantation factor (PIF), full-length 15-amino acid peptide], the % Bound at 1 pg/mL [4] is reported as 96.6%, the % Bound at 10 pg/mL [4] is reported as 93.6% and the % Bound at 25 pg/mL [4] is reported as 91.1%. The % Bound at 250 pg/mL [4] was 81.4%, the % Bound at 500 pg/mL [4] was 69.9% and the AvgNetRLU at 1 pg/mL [4] was 2.3e+07 RLU. For the same molecule, the AvgNetRLU at 10 pg/mL [4] was 2.23e+07 RLU, the AvgNetRLU at 25 pg/mL [4] was 2.16e+07 RLU and the AvgNetRLU at 250 pg/mL [4] was 1.93e+07 RLU. The AvgNetRLU at 500 pg/mL [4] was 1.66e+07 RLU, the MeanValues (RLU) at 1 pg/mL [4] was 2.82e+07 RLU and the MeanValues (RLU) at 10 pg/mL [4] was 2.74e+07 RLU. The MeanValues (RLU) at 25 pg/mL [4] was 2.68e+07 RLU, the MeanValues (RLU) at 250 pg/mL [4] was 2.45e+07 RLU and the MeanValues (RLU) at 500 pg/mL [4] was 2.18e+07 RLU. For the same molecule, the Values (RLU) at 1 pg/mL [4] was 2.86e+07 RLU and 2.77e+07 RLU, the Values (RLU) at 10 pg/mL [4] was 2.79e+07 RLU and 2.7e+07 RLU and the Values (RLU) at 25 pg/mL [4] was 2.72e+07 RLU and 2.65e+07 RLU. For the same molecule, the Values (RLU) at 250 pg/mL [4] was 2.48e+07 RLU and 2.43e+07 RLU, the Values (RLU) at 500 pg/mL [4] was 2.23e+07 RLU and 2.13e+07 RLU and the % B/B0 at 15.625 pg/mL [5] was 122%. The % B/B0 at 31.25 pg/mL [5] was 69%, the % B/B0 at 62.5 pg/mL [5] was 38% and the % B/B0 at 125 pg/mL [5] was 43%. It also gave a % B/B0 at 250 pg/mL [5] of 19%, an Average Mean RFU of bound tracer at 15.625 pg/mL [5] of 10900 RFU and an Average Mean RFU of bound tracer at 31.25 pg/mL [5] of 6170 RFU. The Average Mean RFU of bound tracer at 62.5 pg/mL [5] was 3350 RFU, the Average Mean RFU of bound tracer at 125 pg/mL [5] was 3850 RFU and the Average Mean RFU of bound tracer at 250 pg/mL [5] was 1690 RFU. The Average Mean RFU of bound tracer at 500 pg/mL [5] was 285 RFU, the % Bound at 1 pg/mL [6] was 93.7% and the % Bound at 5 pg/mL [6] was 92.8%. For the same molecule, the % Bound at 10 pg/mL [6] was 91.7%, the % Bound at 25 pg/mL [6] was 90% and the % Bound at 50 pg/mL [6] was 87%. It also gave a % Bound at 100 pg/mL [6] of 89.9%, a % Bound at 250 pg/mL [6] of 77.3% and a % Bound at 500 pg/mL [6] of 61.1%. It also gave a % Bound at 1000 pg/mL [6] of 49.8%, a % Bound at 2000 pg/mL [6] of 27% and an AvgNetRLU at 1 pg/mL [6] of 2.23e+07 RLU. It also gave an AvgNetRLU at 5 pg/mL [6] of 2.21e+07 RLU, an AvgNetRLU at 10 pg/mL [6] of 2.18e+07 RLU and an AvgNetRLU at 25 pg/mL [6] of 2.14e+07 RLU. For the same molecule, the AvgNetRLU at 50 pg/mL [6] was 2.07e+07 RLU, the AvgNetRLU at 100 pg/mL [6] was 2.14e+07 RLU and the AvgNetRLU at 250 pg/mL [6] was 1.84e+07 RLU. For the same molecule, the AvgNetRLU at 500 pg/mL [6] was 1.45e+07 RLU, the AvgNetRLU at 1000 pg/mL [6] was 1.18e+07 RLU and the AvgNetRLU at 2000 pg/mL [6] was 6.41e+06 RLU. For the same molecule, the MeanValue (RLU) at 1 pg/mL [6] was 2.75e+07 RLU, the MeanValue (RLU) at 5 pg/mL [6] was 2.73e+07 RLU and the MeanValue (RLU) at 10 pg/mL [6] was 2.7e+07 RLU. It also gave a MeanValue (RLU) at 25 pg/mL [6] of 2.66e+07 RLU, a MeanValue (RLU) at 50 pg/mL [6] of 2.59e+07 RLU and a MeanValue (RLU) at 100 pg/mL [6] of 2.66e+07 RLU. The MeanValue (RLU) at 250 pg/mL [6] was 2.36e+07 RLU, the MeanValue (RLU) at 500 pg/mL [6] was 1.97e+07 RLU and the MeanValue (RLU) at 1000 pg/mL [6] was 1.7e+07 RLU. The MeanValue (RLU) at 2000 pg/mL [6] was 1.16e+07 RLU, the Values (RLU) at 1 pg/mL [6] was 2.77e+07 RLU and 2.73e+07 RLU and the Values (RLU) at 5 pg/mL [6] was 2.75e+07 RLU and 2.7e+07 RLU. For the same molecule, the Values (RLU) at 10 pg/mL [6] was 2.72e+07 RLU and 2.68e+07 RLU, the Values (RLU) at 25 pg/mL [6] was 2.66e+07 RLU and the Values (RLU) at 50 pg/mL [6] was 2.64e+07 RLU and 2.53e+07 RLU. The Values (RLU) at 100 pg/mL [6] was 2.69e+07 RLU and 2.62e+07 RLU, the Values (RLU) at 250 pg/mL [6] was 2.37e+07 RLU and 2.34e+07 RLU and the Values (RLU) at 500 pg/mL [6] was 2.03e+07 RLU and 1.91e+07 RLU. For the same molecule, the Values (RLU) at 1000 pg/mL [6] was 1.75e+07 RLU and 1.66e+07 RLU and the Values (RLU) at 2000 pg/mL [6] was 1.19e+07 RLU and 1.14e+07 RLU.

B2: rabbit monoclonal anti-PIF antibody Clone #30 (antibody, V domains shown)
VH: RSLEESGGRLVTPGTPLTLTCTVSGIDLSTYSMSWVRQAPGEGLEWIATINTGGSAYYANWAKGRFTISKTSTTVTLKMTSLTTEDTATYFCARTISADNLWGHGTLVTVSS
VL: QVLTQTPSSVSAAVGSTVTISCQSSQSVYSDYLSWYQQKPGQPPKRLIYAAFTLASGVPSRFKGSGSEKQFTLTISDLECDDAATYYCAAIYSNDIWAFGGGTEVVVK
B2 gave a Kd [7] of 17.5 nM, a Kd [8] of 15 nM and a Kd [9] of 10.7 nM.
